T1: GFP-MTase (M.EcoKI DNA methyltransferase, M2S1 form, with enhanced green fluorescent protein fused to the … (E. coli, UniProt P08957 1-529; P05719 1-464)
T1 construct: HsdM modification (MTase) subunit of the Type I R/M enzyme EcoKI, E. coli; its C-terminus is fused to the N-terminus of EGFP; Construct pJFMSEGFP derives from pJFMS [18] and pEGFP-N1; EGFP serves as the FRET donor; also called M.EcoKI fused to GFP; fusion protein; not shown: EGFP, C-terminal, kept; copies: 2 + 1
T1 sequence (looked up) 1: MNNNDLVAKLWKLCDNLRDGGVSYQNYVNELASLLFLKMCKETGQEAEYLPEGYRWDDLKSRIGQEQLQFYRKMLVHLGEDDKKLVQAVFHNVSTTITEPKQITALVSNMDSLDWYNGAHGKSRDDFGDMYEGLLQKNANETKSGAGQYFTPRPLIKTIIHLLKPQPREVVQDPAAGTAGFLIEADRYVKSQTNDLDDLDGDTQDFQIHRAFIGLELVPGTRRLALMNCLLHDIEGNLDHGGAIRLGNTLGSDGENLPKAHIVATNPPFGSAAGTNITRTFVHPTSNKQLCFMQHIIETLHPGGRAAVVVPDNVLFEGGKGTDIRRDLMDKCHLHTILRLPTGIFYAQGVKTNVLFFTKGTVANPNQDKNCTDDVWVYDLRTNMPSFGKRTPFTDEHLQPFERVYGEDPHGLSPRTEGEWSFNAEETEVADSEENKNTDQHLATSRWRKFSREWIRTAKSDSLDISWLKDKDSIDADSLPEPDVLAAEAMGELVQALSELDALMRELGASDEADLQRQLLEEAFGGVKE
T1 sequence (looked up) 2: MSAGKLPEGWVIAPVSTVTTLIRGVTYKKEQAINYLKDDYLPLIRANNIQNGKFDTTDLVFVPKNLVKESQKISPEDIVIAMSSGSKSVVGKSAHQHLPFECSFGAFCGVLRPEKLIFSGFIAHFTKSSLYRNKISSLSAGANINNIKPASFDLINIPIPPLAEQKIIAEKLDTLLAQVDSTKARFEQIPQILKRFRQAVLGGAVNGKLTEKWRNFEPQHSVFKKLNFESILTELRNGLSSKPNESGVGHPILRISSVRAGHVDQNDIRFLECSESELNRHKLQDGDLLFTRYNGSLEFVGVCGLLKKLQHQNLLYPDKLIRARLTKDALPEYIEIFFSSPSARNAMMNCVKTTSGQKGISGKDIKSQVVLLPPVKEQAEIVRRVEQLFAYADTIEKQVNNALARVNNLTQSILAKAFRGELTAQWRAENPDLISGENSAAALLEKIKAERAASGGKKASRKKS

T2: GFP-MTase (M.EcoKI M2S1 with EGFP fused to C-terminus of HsdS) (Escherichia coli? (EcoKI; expressed in …, UniProt P08957;P05719 1-529;1-464)
T2 sequence 1: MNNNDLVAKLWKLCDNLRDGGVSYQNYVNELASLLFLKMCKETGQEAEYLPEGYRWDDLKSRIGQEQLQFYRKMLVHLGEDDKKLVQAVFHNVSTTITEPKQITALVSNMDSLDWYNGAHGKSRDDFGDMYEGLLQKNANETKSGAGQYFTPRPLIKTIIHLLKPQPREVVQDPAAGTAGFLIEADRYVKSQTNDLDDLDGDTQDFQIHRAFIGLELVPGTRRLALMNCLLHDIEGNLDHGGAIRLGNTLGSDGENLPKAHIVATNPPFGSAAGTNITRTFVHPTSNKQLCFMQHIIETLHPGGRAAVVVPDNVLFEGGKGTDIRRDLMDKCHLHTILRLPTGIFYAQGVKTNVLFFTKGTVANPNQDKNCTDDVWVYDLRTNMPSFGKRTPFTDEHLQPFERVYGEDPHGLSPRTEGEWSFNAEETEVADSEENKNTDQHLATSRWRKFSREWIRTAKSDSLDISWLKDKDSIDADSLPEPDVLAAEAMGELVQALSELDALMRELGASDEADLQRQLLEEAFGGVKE
T2 sequence 2: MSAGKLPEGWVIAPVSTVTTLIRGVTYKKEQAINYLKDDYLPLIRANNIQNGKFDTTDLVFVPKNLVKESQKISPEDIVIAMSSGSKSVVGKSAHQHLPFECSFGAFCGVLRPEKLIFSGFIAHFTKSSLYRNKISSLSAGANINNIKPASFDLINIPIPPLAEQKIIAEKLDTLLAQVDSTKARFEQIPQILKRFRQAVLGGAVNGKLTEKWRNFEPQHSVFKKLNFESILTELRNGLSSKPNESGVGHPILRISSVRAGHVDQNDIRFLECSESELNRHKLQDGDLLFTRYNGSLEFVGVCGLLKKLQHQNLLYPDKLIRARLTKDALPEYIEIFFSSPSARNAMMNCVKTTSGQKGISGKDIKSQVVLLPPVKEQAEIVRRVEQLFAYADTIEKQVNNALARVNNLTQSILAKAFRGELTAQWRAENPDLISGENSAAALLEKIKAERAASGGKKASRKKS


Tests used:
[1] = biological target: GFP-MTase (M.EcoKI DNA methyltransferase, M2S1 form, with enhanced green fluorescent protein fused to the C-terminus of HsdS) (E. coli) (UniProt P08957); test: SEC; labelled mutant ocr proteins with GFP-MTase, size exclusion chromatography as previously described [14]; 20 or 25 °C, 20 mM Tris-HCl pH 8.0, 6 mM MgCl2, 7 mM 2-mercaptoethanol
[2] = biological target: T1, GFP-MTase (M.EcoKI DNA …); test: as above; conditions: both partners purified
[3] = biological target: T2, GFP-MTase (M.EcoKI M2S1 with EGFP fused …); test: FRET continuous variation titration; no NaCl; 6 mM Mg2+; 1:1 complex; 20 mM Tris-HCl pH 8.0, 6 mM MgCl2, 7 mM 2-mercaptoethanol, NaCl 0-100 mM (0 for the Kd), 20 or 25 °C; conditions: protein: recombinant; tags: EGFP-His6 at C-terminus of HsdS; chain copies: 2;1; label: 5'-HEX on top strand; blunt

| Molecule | stoichiometry N [1] | also measured |
| --- | --- | --- |
| Dylight549-labelled ocr S68C mutant protein (from UniProt P03775 1-117) (natural protein) | 1 | – |
| Dylight549-labelled ocr E20C mutant protein (from UniProt P03775 1-117) (natural protein) | 1 | – |
| Dylight549-labelled ocr E117C mutant protein (natural protein, phage T7, UniProt P03775 1-117, looked up, Dylight549 maleimide on the introduced cysteine at 117 (labelling level 86.3%), gene 0.3 protein, ocr, from phage T7; one cysteine and so one acceptor label in each subunit; also called E117C ocr; E117E (as printed once); source: site directed mutagenesis and protein purification as described previously [17]) MAMSNMTYNNVFDHAYEMLKENIRYDDIRDTDDLHDAIHMAADNAVPHYYADIFSVMASEGIDLEFEDSGLMPDTKDVIRILQARIYEQLTIDLWEDAEDLLNEYLEEVEEYEEDEC | – | stoichiometry N [2]: 1 |
| 21TH21B (dsDNA) DNA 1: GCCTAACCACGTGGTGCGTAC DNA 2: GTACGCACCACGTGGTTAGGC | – | Kd [3]: 19 ± 7 nM |
